The text below walks through data of patent US20140087995A1 (published 2014).

The labels stand for the following.
T1: human calcitonin receptor (human, UniProt P30988 25-474)
T1 sequence (looked up): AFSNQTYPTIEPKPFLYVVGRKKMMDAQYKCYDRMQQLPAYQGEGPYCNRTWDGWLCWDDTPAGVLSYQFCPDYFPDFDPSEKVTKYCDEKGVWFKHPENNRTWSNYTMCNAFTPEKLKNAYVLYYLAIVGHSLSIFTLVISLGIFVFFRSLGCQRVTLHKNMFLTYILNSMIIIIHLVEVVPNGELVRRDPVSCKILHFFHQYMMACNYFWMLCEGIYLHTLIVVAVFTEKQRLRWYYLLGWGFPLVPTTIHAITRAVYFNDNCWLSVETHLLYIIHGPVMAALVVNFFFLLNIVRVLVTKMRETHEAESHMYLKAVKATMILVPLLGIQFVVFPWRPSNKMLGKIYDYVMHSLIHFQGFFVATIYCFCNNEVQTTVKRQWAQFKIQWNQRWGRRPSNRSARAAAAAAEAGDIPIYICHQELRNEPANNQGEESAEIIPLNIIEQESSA

B1: N^ε1-[(4S)-4-carboxy-4-(19-carboxynonadecanoylamino)butanoyl]-[Glu14,Arg17,Pro21,Pro27,His35]-h-amylin (peptide)
peptide: K([γGlu-C20 diacid])CNTATCATQRLAEFLRHSSPNFGAIPSSTNVGSHTY-NH2
modifications: disulfide 2-7; N-terminus assumed
SMILES: CC[C@H](C)[C@H](NC(=O)[C@H](C)NC(=O)CNC(=O)[C@H](Cc1ccccc1)NC(=O)[C@H](CC(N)=O)NC(=O)[C@@H]1CCCN1C(=O)[C@H](CO)NC(=O)[C@H](CO)NC(=O)[C@H](Cc1c[nH]cn1)NC(=O)[C@H](CCCNC(=N)N)NC(=O)[C@H](CC(C)C)NC(=O)[C@H](Cc1ccccc1)NC(=O)[C@H](CCC(=O)O)NC(=O)[C@H](C)NC(=O)[C@H](CC(C)C)NC(=O)[C@H](CCCNC(=N)N)NC(=O)[C@H](CCC(N)=O)NC(=O)[C@@H](NC(=O)[C@H](C)NC(=O)[C@@H]1CSSC[C@H](NC(=O)[C@@H](N)CCCCNC(=O)CC[C@H](NC(=O)CCCCCCCCCCCCCCCCCCC(=O)O)C(=O)O)C(=O)N[C@@H](CC(N)=O)C(=O)N[C@@H]([C@@H](C)O)C(=O)N[C@@H](C)C(=O)N[C@@H]([C@@H](C)O)C(=O)N1)[C@@H](C)O)C(=O)N1CCC[C@H]1C(=O)N[C@@H](CO)C(=O)N[C@@H](CO)C(=O)N[C@H](C(=O)N[C@@H](CC(N)=O)C(=O)N[C@H](C(=O)NCC(=O)N[C@@H](CO)C(=O)N[C@@H](Cc1c[nH]cn1)C(=O)N[C@H](C(=O)N[C@@H](Cc1ccc(O)cc1)C(N)=O)[C@@H](C)O)C(C)C)[C@@H](C)O
notes: synthetic peptide amide
B2: N^ε1-[(4S)-4-carboxy-4-[[(4S)-4-carboxy-4-(19-carboxynonadecanoylamino)butanoyl]amino]butanoyl]-[Asp14,Arg17,Pro21,Pro27,Pro34,Arg35]-h-amylin (peptide)
peptide: K([γGlu-γGlu-C20 diacid])CNTATCATQRLADFLRHSSPNFGAIPSSTNVGPRTY-NH2
modifications: disulfide 2-7
notes: synthetic peptide amide; also called compound 130
B3: N^ε1-[(4S)-4-carboxy-4-[[(4S)-4-carboxy-4-(19-carboxynonadecanoylamino)butanoyl]amino]butanoyl]-[Glu14,Arg17,Pro21,Pro27,Arg34,Glu35]-h-amylin (peptide)
peptide: K([γGlu-γGlu-C20 diacid])CNTATCATQRLAEFLRHSSPNFGAIPSSTNVGRETY-NH2
modifications: disulfide 2-7; N-terminus assumed
SMILES: CC[C@H](C)[C@H](NC(=O)[C@H](C)NC(=O)CNC(=O)[C@H](Cc1ccccc1)NC(=O)[C@H](CC(N)=O)NC(=O)[C@@H]1CCCN1C(=O)[C@H](CO)NC(=O)[C@H](CO)NC(=O)[C@H](Cc1c[nH]cn1)NC(=O)[C@H](CCCNC(=N)N)NC(=O)[C@H](CC(C)C)NC(=O)[C@H](Cc1ccccc1)NC(=O)[C@H](CCC(=O)O)NC(=O)[C@H](C)NC(=O)[C@H](CC(C)C)NC(=O)[C@H](CCCNC(=N)N)NC(=O)[C@H](CCC(N)=O)NC(=O)[C@@H](NC(=O)[C@H](C)NC(=O)[C@@H]1CSSC[C@H](NC(=O)[C@@H](N)CCCCNC(=O)CC[C@H](NC(=O)CC[C@H](NC(=O)CCCCCCCCCCCCCCCCCCC(=O)O)C(=O)O)C(=O)O)C(=O)N[C@@H](CC(N)=O)C(=O)N[C@@H]([C@@H](C)O)C(=O)N[C@@H](C)C(=O)N[C@@H]([C@@H](C)O)C(=O)N1)[C@@H](C)O)C(=O)N1CCC[C@H]1C(=O)N[C@@H](CO)C(=O)N[C@@H](CO)C(=O)N[C@H](C(=O)N[C@@H](CC(N)=O)C(=O)N[C@H](C(=O)NCC(=O)N[C@@H](CCCNC(=N)N)C(=O)N[C@@H](CCC(=O)O)C(=O)N[C@H](C(=O)N[C@@H](Cc1ccc(O)cc1)C(N)=O)[C@@H](C)O)C(C)C)[C@@H](C)O
notes: synthetic peptide amide
B4: N^ε1-[(4S)-4-carboxy-4-[[(4S)-4-carboxy-4-(19-carboxynonadecanoylamino)butanoyl]amino]butanoyl]-[Asp14,Arg17,Pro21,Pro27,Pro34,Glu35]-h-amylin (peptide)
peptide: K([γGlu-γGlu-C20 diacid])CNTATCATQRLADFLRHSSPNFGAIPSSTNVGPETY-NH2
modifications: disulfide 2-7
notes: synthetic peptide amide
B5: N^ε1-[(4S)-4-carboxy-4-[[(4S)-4-carboxy-4-(19-carboxynonadecanoylamino)butanoyl]amino]butanoyl]-[Glu14,Arg17,Pro21,Pro27,His34,Glu35]-h-amylin (peptide)
peptide: K([γGlu-γGlu-C20 diacid])CNTATCATQRLAEFLRHSSPNFGAIPSSTNVGHETY-NH2
modifications: disulfide 2-7; N-terminus assumed
SMILES: CC[C@H](C)[C@H](NC(=O)[C@H](C)NC(=O)CNC(=O)[C@H](Cc1ccccc1)NC(=O)[C@H](CC(N)=O)NC(=O)[C@@H]1CCCN1C(=O)[C@H](CO)NC(=O)[C@H](CO)NC(=O)[C@H](Cc1c[nH]cn1)NC(=O)[C@H](CCCNC(=N)N)NC(=O)[C@H](CC(C)C)NC(=O)[C@H](Cc1ccccc1)NC(=O)[C@H](CCC(=O)O)NC(=O)[C@H](C)NC(=O)[C@H](CC(C)C)NC(=O)[C@H](CCCNC(=N)N)NC(=O)[C@H](CCC(N)=O)NC(=O)[C@@H](NC(=O)[C@H](C)NC(=O)[C@@H]1CSSC[C@H](NC(=O)[C@@H](N)CCCCNC(=O)CC[C@H](NC(=O)CC[C@H](NC(=O)CCCCCCCCCCCCCCCCCCC(=O)O)C(=O)O)C(=O)O)C(=O)N[C@@H](CC(N)=O)C(=O)N[C@@H]([C@@H](C)O)C(=O)N[C@@H](C)C(=O)N[C@@H]([C@@H](C)O)C(=O)N1)[C@@H](C)O)C(=O)N1CCC[C@H]1C(=O)N[C@@H](CO)C(=O)N[C@@H](CO)C(=O)N[C@H](C(=O)N[C@@H](CC(N)=O)C(=O)N[C@H](C(=O)NCC(=O)N[C@@H](Cc1c[nH]cn1)C(=O)N[C@@H](CCC(=O)O)C(=O)N[C@H](C(=O)N[C@@H](Cc1ccc(O)cc1)C(N)=O)[C@@H](C)O)C(C)C)[C@@H](C)O
notes: synthetic peptide amide
B6: N^ε1-[(4S)-4-carboxy-4-[[(4S)-4-carboxy-4-(19-carboxynonadecanoylamino)butanoyl]amino]butanoyl]-[D-Asp14,Arg17,Pro21,Pro27,Arg35]-h-amylin (peptide)
peptide: K([γGlu-γGlu-C20 diacid])CNTATCATQRLA[dD]FLRHSSPNFGAIPSSTNVGSRTY-NH2
modifications: disulfide 2-7; N-terminus assumed
SMILES: CC[C@H](C)[C@H](NC(=O)[C@H](C)NC(=O)CNC(=O)[C@H](Cc1ccccc1)NC(=O)[C@H](CC(N)=O)NC(=O)[C@@H]1CCCN1C(=O)[C@H](CO)NC(=O)[C@H](CO)NC(=O)[C@H](Cc1c[nH]cn1)NC(=O)[C@H](CCCNC(=N)N)NC(=O)[C@H](CC(C)C)NC(=O)[C@H](Cc1ccccc1)NC(=O)[C@@H](CC(=O)O)NC(=O)[C@H](C)NC(=O)[C@H](CC(C)C)NC(=O)[C@H](CCCNC(=N)N)NC(=O)[C@H](CCC(N)=O)NC(=O)[C@@H](NC(=O)[C@H](C)NC(=O)[C@@H]1CSSC[C@H](NC(=O)[C@@H](N)CCCCNC(=O)CC[C@H](NC(=O)CC[C@H](NC(=O)CCCCCCCCCCCCCCCCCCC(=O)O)C(=O)O)C(=O)O)C(=O)N[C@@H](CC(N)=O)C(=O)N[C@@H]([C@@H](C)O)C(=O)N[C@@H](C)C(=O)N[C@@H]([C@@H](C)O)C(=O)N1)[C@@H](C)O)C(=O)N1CCC[C@H]1C(=O)N[C@@H](CO)C(=O)N[C@@H](CO)C(=O)N[C@H](C(=O)N[C@@H](CC(N)=O)C(=O)N[C@H](C(=O)NCC(=O)N[C@@H](CO)C(=O)N[C@@H](CCCNC(=N)N)C(=O)N[C@H](C(=O)N[C@@H](Cc1ccc(O)cc1)C(N)=O)[C@@H](C)O)C(C)C)[C@@H](C)O
notes: synthetic peptide amide
B7: N^ε1-[(4S)-4-carboxy-4-(19-carboxynonadecanoylamino)butanoyl]-[Glu14,Arg17,Pro21,Pro27,Pro34,His35]-h-amylin (peptide)
peptide: K([γGlu-C20 diacid])CNTATCATQRLAEFLRHSSPNFGAIPSSTNVGPHTY-NH2
modifications: disulfide 2-7
notes: synthetic peptide amide
B8: N^ε1-[(4S)-4-carboxy-4-[[(4S)-4-carboxy-4-(19-carboxynonadecanoylamino)butanoyl]amino]butanoyl]-[Arg17,Pro21,Pro27,Pro31,Pro34,Arg35]-h-amylin (peptide)
peptide: K([γGlu-γGlu-C20 diacid])CNTATCATQRLANFLRHSSPNFGAIPSSTPVGPRTY-NH2
modifications: disulfide 2-7; N-terminus assumed
SMILES: CC[C@H](C)[C@H](NC(=O)[C@H](C)NC(=O)CNC(=O)[C@H](Cc1ccccc1)NC(=O)[C@H](CC(N)=O)NC(=O)[C@@H]1CCCN1C(=O)[C@H](CO)NC(=O)[C@H](CO)NC(=O)[C@H](Cc1c[nH]cn1)NC(=O)[C@H](CCCNC(=N)N)NC(=O)[C@H](CC(C)C)NC(=O)[C@H](Cc1ccccc1)NC(=O)[C@H](CC(N)=O)NC(=O)[C@H](C)NC(=O)[C@H](CC(C)C)NC(=O)[C@H](CCCNC(=N)N)NC(=O)[C@H](CCC(N)=O)NC(=O)[C@@H](NC(=O)[C@H](C)NC(=O)[C@@H]1CSSC[C@H](NC(=O)[C@@H](N)CCCCNC(=O)CC[C@H](NC(=O)CC[C@H](NC(=O)CCCCCCCCCCCCCCCCCCC(=O)O)C(=O)O)C(=O)O)C(=O)N[C@@H](CC(N)=O)C(=O)N[C@@H]([C@@H](C)O)C(=O)N[C@@H](C)C(=O)N[C@@H]([C@@H](C)O)C(=O)N1)[C@@H](C)O)C(=O)N1CCC[C@H]1C(=O)N[C@@H](CO)C(=O)N[C@@H](CO)C(=O)N[C@H](C(=O)N1CCC[C@H]1C(=O)N[C@H](C(=O)NCC(=O)N1CCC[C@H]1C(=O)N[C@@H](CCCNC(=N)N)C(=O)N[C@H](C(=O)N[C@@H](Cc1ccc(O)cc1)C(N)=O)[C@@H](C)O)C(C)C)[C@@H](C)O
notes: synthetic peptide amide
B9: N^ε1-[(4S)-4-carboxy-4-(19-carboxynonadecanoylamino)butanoyl]-[Glu14,Arg17,Pro21,Pro27,Pro34,Arg35]-h-amylin (peptide)
peptide: K([γGlu-C20 diacid])CNTATCATQRLAEFLRHSSPNFGAIPSSTNVGPRTY-NH2
modifications: disulfide 2-7; N-terminus assumed
SMILES: CC[C@H](C)[C@H](NC(=O)[C@H](C)NC(=O)CNC(=O)[C@H](Cc1ccccc1)NC(=O)[C@H](CC(N)=O)NC(=O)[C@@H]1CCCN1C(=O)[C@H](CO)NC(=O)[C@H](CO)NC(=O)[C@H](Cc1c[nH]cn1)NC(=O)[C@H](CCCNC(=N)N)NC(=O)[C@H](CC(C)C)NC(=O)[C@H](Cc1ccccc1)NC(=O)[C@H](CCC(=O)O)NC(=O)[C@H](C)NC(=O)[C@H](CC(C)C)NC(=O)[C@H](CCCNC(=N)N)NC(=O)[C@H](CCC(N)=O)NC(=O)[C@@H](NC(=O)[C@H](C)NC(=O)[C@@H]1CSSC[C@H](NC(=O)[C@@H](N)CCCCNC(=O)CC[C@H](NC(=O)CCCCCCCCCCCCCCCCCCC(=O)O)C(=O)O)C(=O)N[C@@H](CC(N)=O)C(=O)N[C@@H]([C@@H](C)O)C(=O)N[C@@H](C)C(=O)N[C@@H]([C@@H](C)O)C(=O)N1)[C@@H](C)O)C(=O)N1CCC[C@H]1C(=O)N[C@@H](CO)C(=O)N[C@@H](CO)C(=O)N[C@H](C(=O)N[C@@H](CC(N)=O)C(=O)N[C@H](C(=O)NCC(=O)N1CCC[C@H]1C(=O)N[C@@H](CCCNC(=N)N)C(=O)N[C@H](C(=O)N[C@@H](Cc1ccc(O)cc1)C(N)=O)[C@@H](C)O)C(C)C)[C@@H](C)O
notes: synthetic peptide amide

Numbered stars: 1 amine (or outer) side, 2 acyl side, 3 side chain; on linkers, the order of the positions; unused ones are H or OH. Bridge positions count the residues as written; N and C are the ends. Square brackets hold non-standard residues; d marks the D form. Side chains are listed from the residue outwards. Ends that are not written are not given here. * marks the point of attachment. C20 diacid = O=C(O)CCCCCCCCCCCCCCCCCCC(=O)*; γGlu = O=C(O)[C@H](CCC(=O)[*:2])N[*:1]

For this assay, the target named is T1, human calcitonin receptor. The experiment in a line: cell-based or functional assay.
Regarding B1, the “hCTR funct. EC50 (pM)” value amounted to 5580 pM.

Take B2: the “hCTR funct. EC50 (pM)” value came to 7280 pM.

Turning to B3, the “hCTR funct. EC50 (pM)” value was 7430 pM.

Take B4: the “hCTR funct. EC50 (pM)” value came out at 843 pM.

As for B5, the “hCTR funct. EC50 (pM)” value turned out to be 7050 pM.

Turning to B6, the “hCTR funct. EC50 (pM)” value stood at 100000 pM.

In the case of B7, the “hCTR funct. EC50 (pM)” value is 1450 pM.

As for B8, the “hCTR funct. EC50 (pM)” value was found to be 8660 pM.

As to B9, the “hCTR funct. EC50 (pM)” value amounted to 6380 pM.
